What was measured:
[1] = molecular target: T1, IFIT1 wild-type (human, UniProt P09914 1-478); test: X-ray crystallography
T1 sequence: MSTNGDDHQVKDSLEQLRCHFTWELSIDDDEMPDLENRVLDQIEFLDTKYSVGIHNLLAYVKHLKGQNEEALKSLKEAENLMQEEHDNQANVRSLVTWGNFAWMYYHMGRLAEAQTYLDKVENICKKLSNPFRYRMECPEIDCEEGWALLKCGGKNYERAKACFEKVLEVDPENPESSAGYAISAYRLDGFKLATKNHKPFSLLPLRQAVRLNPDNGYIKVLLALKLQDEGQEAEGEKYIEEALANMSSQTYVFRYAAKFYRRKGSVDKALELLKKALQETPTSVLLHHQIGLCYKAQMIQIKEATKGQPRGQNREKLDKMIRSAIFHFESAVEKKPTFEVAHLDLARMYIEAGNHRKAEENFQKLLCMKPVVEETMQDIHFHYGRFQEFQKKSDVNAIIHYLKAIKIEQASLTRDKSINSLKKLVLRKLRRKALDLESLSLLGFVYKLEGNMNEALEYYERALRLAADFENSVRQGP

[2] = molecular target: the molecule itself; test: SEC
[3] = molecular target: the molecule itself; test: SEC-MALS
[4] = molecular target: T1, IFIT1 wild-type; test: limited proteolysis
[5] = molecular target: T1, IFIT1 wild-type; test: X-ray crystallography; remark: listed apart in the source

Question: Does AAAA (ssRNA, 5' triphosphate) [PPP-oligoA (PPP-AAAA)] bind [1]?
Answer: binds

B1: IFIT5-IFIT1 chimera (IFIT5^i1TPR9): human IFIT5 α1-α21 (residues 1-435) and human IFIT1 α22-α23 (TPR9, residues 437-478) (other, UniProt Q13325 1-435, looked up)
chain: MSEIRKDTLKAILLELECHFTWNLLKEDIDLFEVEDTIGQQLEFLTTKSRLALYNLLAYVKHLKGQNKDALECLEQAEEIIQQEHSDKEEVRSLVTWGNYAWVYYHMDQLEEAQKYTGKIGNVCKKLSSPSNYKLECPETDCEKGWALLKFGGKYYQKAKAAFEKALEVEPDNPEFNIGYAITVYRLDDSDREGSVKSFSLGPLRKAVTLNPDNSYIKVFLALKLQDVHAEAEGEKYIEEILDQISSQPYVLRYAAKFYRRKNSWNKALELLKKALEVTPTSSFLHHQMGLCYRAQMIQIKKATHNRPKGKDKLKVDELISSAIFHFKAAMERDSMFAFAYTDLANMYAEGGQYSNAEDIFRKALRLENITDDHKHQIHYHYGRFQEFHRKSENTAIHHYLEALKVKDRSPLRTKLTSALKKLSTKRLCHNALDVLESLSLLGFVYKLEGNMNEALEYYERALRLAADFENSVRQGP
Question: Which “stoichiometry N” value [2] does the source give for B1 here?
Answer: 2

B2: IFIT2 (natural protein, UniProt P09913 1-472, looked up)
chain: MSENNKNSLESSLRQLKCHFTWNLMEGENSLDDFEDKVFYRTEFQNREFKATMCNLLAYLKHLKGQNEAALECLRKAEELIQQEHADQAEIRSLVTWGNYAWVYYHMGRLSDVQIYVDKVKHVCEKFSSPYRIESPELDCEEGWTRLKCGGNQNERAKVCFEKALEKKPKNPEFTSGLAIASYRLDNWPPSQNAIDPLRQAIRLNPDNQYLKVLLALKLHKMREEGEEEGEGEKLVEEALEKAPGVTDVLRSAAKFYRRKDEPDKAIELLKKALEYIPNNAYLHCQIGCCYRAKVFQVMNLRENGMYGKRKLLELIGHAVAHLKKADEANDNLFRVCSILASLHALADQYEDAEYYFQKEFSKELTPVAKQLLHLRYGNFQLYQMKCEDKAIHHFIEGVKINQKSREKEKMKDKLQKIAKMRLSKNGADSEALHVLAFLQELNEKMQQADEDSERGLESGSLIPSASSWNGE
Question: With B2 as the binder, how does the “stoichiometry N” value [2] read?
Answer: 2

B3: human IFIT1, wild-type, full-length (residues 1-478) (natural protein, UniProt P09914 1-478, looked up)
chain: MSTNGDDHQVKDSLEQLRCHFTWELSIDDDEMPDLENRVLDQIEFLDTKYSVGIHNLLAYVKHLKGQNEEALKSLKEAENLMQEEHDNQANVRSLVTWGNFAWMYYHMGRLAEAQTYLDKVENICKKLSNPFRYRMECPEIDCEEGWALLKCGGKNYERAKACFEKVLEVDPENPESSAGYAISAYRLDGFKLATKNHKPFSLLPLRQAVRLNPDNGYIKVLLALKLQDEGQEAEGEKYIEEALANMSSQTYVFRYAAKFYRRKGSVDKALELLKKALQETPTSVLLHHQIGLCYKAQMIQIKEATKGQPRGQNREKLDKMIRSAIFHFESAVEKKPTFEVAHLDLARMYIEAGNHRKAEENFQKLLCMKPVVEETMQDIHFHYGRFQEFQKKSDVNAIIHYLKAIKIEQASLTRDKSINSLKKLVLRKLRRKALDLESLSLLGFVYKLEGNMNEALEYYERALRLAADFENSVRQGP
Question: For B3, which “stoichiometry N” value [3] is on record?
Answer: 2

B4: human IFIT1 K448E (natural protein, UniProt P09914 1-478, looked up)
chain: MSTNGDDHQVKDSLEQLRCHFTWELSIDDDEMPDLENRVLDQIEFLDTKYSVGIHNLLAYVKHLKGQNEEALKSLKEAENLMQEEHDNQANVRSLVTWGNFAWMYYHMGRLAEAQTYLDKVENICKKLSNPFRYRMECPEIDCEEGWALLKCGGKNYERAKACFEKVLEVDPENPESSAGYAISAYRLDGFKLATKNHKPFSLLPLRQAVRLNPDNGYIKVLLALKLQDEGQEAEGEKYIEEALANMSSQTYVFRYAAKFYRRKGSVDKALELLKKALQETPTSVLLHHQIGLCYKAQMIQIKEATKGQPRGQNREKLDKMIRSAIFHFESAVEKKPTFEVAHLDLARMYIEAGNHRKAEENFQKLLCMKPVVEETMQDIHFHYGRFQEFQKKSDVNAIIHYLKAIKIEQASLTRDKSINSLKKLVLRKLRRKALDLESLSLLGFVYELEGNMNEALEYYERALRLAADFENSVRQGP
Question: Does B4 bind [2]?
Answer: binds

Question: Does AAAA (ssRNA, 5' Gppp cap (cap G not in strand)) [Gppp-oligoA (Gppp-AAAA)] bind [4]?
Answer: binds

Question: Does AAAA (ssRNA, 5' m7Gppp cap (cap G not in strand)) [m7Gppp-oligoA (m7Gppp-AAAA)] bind [5]?
Answer: binds

Source: doi:10.1101/152850 (bioRxiv, 2017)
